# Entries after “also recorded” stand apart in the source; their conditions may differ. Read-outs that look alike come from different tables or passages of the source.
# Assays:
# Assay type in all cases: biochemical, Mycobacterium thermoresistibile
# [1] = system: Nc1ncnc2c1ncn2[C@@H]1O[C@H](COP(=O)(O)OP(=O)(O)O[C@H]2O[C@H](CO)[C@@H](O)[C@H](O)[C@H]2O)[C@@H](O)[C@H]1O; experiment: OtsA kinetic parameters, continuous colorimetric coupled assay (R213E); conditions: other: R213E; G6P fixed at 10 mM for NDP-glucose, ADP-glucose […] for G6P; pH 7.5; 37.0 °C
# Method: (§1) Formation of T6P was assessed by a continuous colorimetric assay that followed the release of NDP by measuring the oxidation of NADH at 340 nm, in the presence of pyruvate kinase and lactate dehydrogenase. All reagents used were obtained from Sigma-Aldrich. The enzymatic reactions (200-μl reaction mixture) were performed at 37°C, and the reaction mixtures contained 50 mM Tris (pH 7.5), 200 mM NaCl, 10 mM MgCl2, 50 mM KCl, 0.3 mM NADH, 2.5 mM phosphoenolpyruvate (PEP), 10 units of pyruvate kinase-lactate dehydrogenase, 0.1 μM enzyme, and various concentrations of G6P and NDP-glucose to determine kinetic parameters.
# [2] = system: O=C[C@H](O)[C@@H](O)[C@H](O)[C@H](O)COP(=O)(O)O; experiment: as above; conditions: other: R213E; G6P fixed at 10 mM for NDP-glucose, ADP-glucose […] for G6P; pH 7.5; 37.0 °C
# Method: as §1
# [3] = system: Nc1ncnc2c1ncn2[C@@H]1O[C@H](COP(=O)(O)OP(=O)(O)O[C@H]2O[C@H](CO)[C@@H](O)[C@H](O)[C@H]2O)[C@@H](O)[C@H]1O; experiment: OtsA kinetic parameters, continuous colorimetric coupled assay (L319I, V363F, E367L); conditions: other: L319I, G6P fixed at 10 mM for NDP-glucose, ADP-glucose […] for G6P, pH 7.5, 37.0 °C
# [4] = system: O=C[C@H](O)[C@@H](O)[C@H](O)[C@H](O)COP(=O)(O)O; experiment: as above; conditions: other: L319I, G6P fixed at 10 mM for NDP-glucose, ADP-glucose […] for G6P, pH 7.5, 37.0 °C
# [5] = system: Nc1nc2c(ncn2[C@@H]2O[C@H](COP(=O)(O)OP(=O)(O)O[C@H]3O[C@H](CO)[C@@H](O)[C@H](O)[C@H]3O)[C@@H](O)[C@H]2O)c(=O)[nH]1; experiment: as above; conditions: other: L319I, G6P fixed at 10 mM for NDP-glucose, ADP-glucose […] for G6P, pH 7.5, 37.0 °C
# [6] = molecular target: M. thermoresistibile OtsA wild type (Mycolicibacterium thermoresistibile, UniProt G7CGT2); experiment: Effect of feedback inhibitors and allosteric regulators on OtsA activity (wild type)
# [7] = molecular target: T1, M. thermoresistibile OtsA R213E (Mycolicibacterium thermoresistibile, UniProt G7CGT2, R213E); experiment: Effect of allosteric regulators on OtsA activity (R213E); conditions: R213E, G6P and ADP-glucose both 0.3 mM
# T1 sequence (G7CGT2 1-486 R213E): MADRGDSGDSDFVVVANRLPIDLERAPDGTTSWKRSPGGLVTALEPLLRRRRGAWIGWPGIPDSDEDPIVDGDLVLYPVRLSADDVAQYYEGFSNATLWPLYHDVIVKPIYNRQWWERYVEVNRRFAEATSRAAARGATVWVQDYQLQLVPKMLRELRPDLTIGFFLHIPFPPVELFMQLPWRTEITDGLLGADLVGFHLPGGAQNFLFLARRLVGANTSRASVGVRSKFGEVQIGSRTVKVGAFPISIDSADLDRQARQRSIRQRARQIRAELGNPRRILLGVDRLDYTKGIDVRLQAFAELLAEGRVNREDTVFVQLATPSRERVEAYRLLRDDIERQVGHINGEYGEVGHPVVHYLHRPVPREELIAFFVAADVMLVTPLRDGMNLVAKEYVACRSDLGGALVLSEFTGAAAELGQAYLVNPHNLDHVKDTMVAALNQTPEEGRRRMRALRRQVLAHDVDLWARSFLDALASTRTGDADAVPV
# Method: as §1, with “.” for “Formation of T6P was assessed by a continuous colorimetric assay that followed the release of NDP by measuring the oxidation of NADH at 340 nm, in the presence of pyruvate kinase and lactate dehydrogenase.”
# (§2) […]. All experiments were performed in triplicate in a PHERAstar plate reader (BMG Labtech), and data were analyzed with Prism 5 (GraphPad Software).
# [8] = molecular target: T2, M. thermoresistibile OtsA R384E (Mycolicibacterium thermoresistibile, UniProt G7CGT2, R384E); experiment: Effect of allosteric regulators on OtsA activity (R384E); conditions: R384E, G6P and ADP-glucose both 0.3 mM
# T2 sequence (G7CGT2 1-486 R384E): T1 sequence (G7CGT2 1-486 R213E)
# Method: as §1, with “.” for “Formation of T6P was assessed by a continuous colorimetric assay that followed the release of NDP by measuring the oxidation of NADH at 340 nm, in the presence of pyruvate kinase and lactate dehydrogenase.”
# as §2
# [9] = system: Nc1ncnc2c1ncn2[C@@H]1O[C@H](COP(=O)(O)OP(=O)(O)O[C@H]2O[C@H](CO)[C@@H](O)[C@H](O)[C@H]2O)[C@@H](O)[C@H]1O; experiment: OtsA kinetic parameters, continuous colorimetric coupled assay (L319I, E367L); conditions: other: L319I, G6P fixed at 10 mM for NDP-glucose, ADP-glucose […] for G6P, pH 7.5, 37.0 °C
# [10] = system: O=C[C@H](O)[C@@H](O)[C@H](O)[C@H](O)COP(=O)(O)O; experiment: as above; conditions: other: L319I, G6P fixed at 10 mM for NDP-glucose, ADP-glucose […] for G6P, pH 7.5, 37.0 °C
# [11] = system: Nc1nc2c(ncn2[C@@H]2O[C@H](COP(=O)(O)OP(=O)(O)O[C@H]3O[C@H](CO)[C@@H](O)[C@H](O)[C@H]3O)[C@@H](O)[C@H]2O)c(=O)[nH]1; experiment: as above; conditions: other: L319I, G6P fixed at 10 mM for NDP-glucose, ADP-glucose […] for G6P, pH 7.5, 37.0 °C
# [12] = system: Nc1ncnc2c1ncn2[C@@H]1O[C@H](COP(=O)(O)OP(=O)(O)O[C@H]2O[C@H](CO)[C@@H](O)[C@H](O)[C@H]2O)[C@@H](O)[C@H]1O; experiment: OtsA kinetic parameters, continuous colorimetric coupled assay (V363F); conditions: other: V363F; G6P fixed at 10 mM for NDP-glucose, ADP-glucose […] for G6P; pH 7.5; 37.0 °C
# [13] = system: O=C[C@H](O)[C@@H](O)[C@H](O)[C@H](O)COP(=O)(O)O; experiment: as above; conditions: other: V363F; G6P fixed at 10 mM for NDP-glucose, ADP-glucose […] for G6P; pH 7.5; 37.0 °C
# [14] = system: Nc1nc2c(ncn2[C@@H]2O[C@H](COP(=O)(O)OP(=O)(O)O[C@H]3O[C@H](CO)[C@@H](O)[C@H](O)[C@H]3O)[C@@H](O)[C@H]2O)c(=O)[nH]1; experiment: as above; conditions: other: V363F; G6P fixed at 10 mM for NDP-glucose, ADP-glucose […] for G6P; pH 7.5; 37.0 °C
# [15] = system: Nc1ncnc2c1ncn2[C@@H]1O[C@H](COP(=O)(O)OP(=O)(O)O[C@H]2O[C@H](CO)[C@@H](O)[C@H](O)[C@H]2O)[C@@H](O)[C@H]1O; experiment: OtsA kinetic parameters, continuous colorimetric coupled assay (R384E); conditions: other: R384E; G6P fixed at 10 mM for NDP-glucose, ADP-glucose […] for G6P; pH 7.5; 37.0 °C
# Method: as §1
# [16] = system: O=C[C@H](O)[C@@H](O)[C@H](O)[C@H](O)COP(=O)(O)O; experiment: as above; conditions: other: R384E; G6P fixed at 10 mM for NDP-glucose, ADP-glucose […] for G6P; pH 7.5; 37.0 °C
# Method: as §1
# [17] = wild type, G6P and ADP-glucose both 0.3 mM
molecule,measurement,setting,value
M. thermoresistibile OtsA R213E (Mycolicibacterium thermoresistibile ATCC 19527; R213E),Km,[1],310 ± 10 µM
same,kcat,[1],56 ± 2 s⁻¹
same,kcat/Km,[1],180000 ± 13000 M⁻¹ s⁻¹
same,Km,[2],3300 ± 300 µM
same,kcat,[2],33 ± 2 s⁻¹
same,kcat/Km,[2],10000 ± 1000 M⁻¹ s⁻¹
"M. thermoresistibile OtsA L319I, V363F, E367L (Mycolicibacterium thermoresistibile ATCC 19527; E367L/L319I/V363F)",Km,[3],1300 ± 100 µM
same,kcat,[3],19 ± 1 s⁻¹
same,kcat/Km,[3],15000 ± 2000 M⁻¹ s⁻¹
same,Km,[4],3200 ± 200 µM
same,kcat,[4],17 ± 1 s⁻¹
same,kcat/Km,[4],5300 ± 600 M⁻¹ s⁻¹
same,Km,[5],900 ± 60 µM
same,kcat,[5],16 ± 1 s⁻¹
same,kcat/Km,[5],18000 ± 2000 M⁻¹ s⁻¹
OC[C@H]1O[C@H](O[C@H]2O[C@H](CO)[C@@H](O)[C@H](O)[C@H]2O)[C@H](O)[C@@H](O)[C@@H]1O [Trehalose],IC50,[6],~24000 µM
"O=P(O)(O)OC[C@H]1O[C@H](O[C@H]2O[C@H](CO)[C@@H](O)[C@H](O)[C@H]2O)[C@H](O)[C@@H](O)[C@@H]1O [T6P, trehalose-6-phosphate]",effect on OtsA activity,[6]; [17],very low sensitivity
"O=C(O)CCC(=O)C(=O)O [2OG, 2-oxoglutarate]","nH, Hill coefficient (95% confidence interval)",[6]; [17],1.4 (1.1–1.7)
same,IC50,"[6]; wild type, G6P and ADP-glucose both 0.3 mM, read-out: IC50 (95% confidence interval)",1800 µM
same,effect on OtsA activity,[7],abolished the strong response
same,"nH, Hill coefficient (95% confidence interval)",[7],0.26 (0.16–0.35)
same,IC50,[7]; read-out: IC50 (95% confidence interval),73000 µM
same,effect on OtsA activity,[8],strong activator
same,"nH, Hill coefficient (95% confidence interval)",[8],2.5 (1.4–3.5)
same,EC50,"[8]; read-out: EC50 (95% confidence interval), activation",700 µM
O=C(CO)[C@@H](O)[C@H](O)[C@H](O)COP(=O)(O)O [F6P],effect on OtsA activity,[6],could not detect any effect; also recorded: no effect on the enzyme activity
"O=C(O)C(CO)OP(=O)(O)O (stereo not shown) [2PG, 2-phosphoglyceric acid]",IC50,[6],2300 µM
same,"nH, Hill coefficient (95% confidence interval)",[6]; [17],2.0 (1.4–2.7)
same,"nH, Hill coefficient (95% confidence interval)",[7],0.51 (0.40–0.63)
same,effect on OtsA activity,[8],no effect
"M. thermoresistibile OtsA L319I, E367L (Mycolicibacterium thermoresistibile ATCC 19527; E367L/L319I)",Km,[9],630 ± 40 µM
same,kcat,[9],14 ± 1 s⁻¹
same,kcat/Km,[9],22000 ± 3000 M⁻¹ s⁻¹
same,Km,[10],3700 ± 200 µM
same,kcat,[10],21 ± 1 s⁻¹
same,kcat/Km,[10],5700 ± 500 M⁻¹ s⁻¹
same,Km,[11],700 ± 50 µM
same,kcat,[11],9.2 ± 0.4 s⁻¹
same,kcat/Km,[11],13000 ± 2000 M⁻¹ s⁻¹
M. thermoresistibile OtsA V363F (Mycolicibacterium thermoresistibile ATCC 19527; V363F),Km,[12],600 ± 30 µM
same,kcat,[12],11 ± 1 s⁻¹
same,kcat/Km,[12],18000 ± 2000 M⁻¹ s⁻¹
same,Km,[13],3100 ± 200 µM
same,kcat,[13],19 ± 1 s⁻¹
same,kcat/Km,[13],6100 ± 700 M⁻¹ s⁻¹
same,Km,[14],740 ± 80 µM
same,kcat,[14],14 ± 1 s⁻¹
same,kcat/Km,[14],19000 ± 3000 M⁻¹ s⁻¹
M. thermoresistibile OtsA R384E (Mycolicibacterium thermoresistibile ATCC 19527; R384E),Km,[15],1900 ± 200 µM
same,kcat,[15],3.2 ± 0.1 s⁻¹
same,kcat/Km,[15],1700 ± 200 M⁻¹ s⁻¹
same,Km,[16],2900 ± 200 µM
same,kcat,[16],2.1 ± 0.2 s⁻¹
same,kcat/Km,[16],770 ± 50 M⁻¹ s⁻¹
"O=S(=O)(O)CCNC1CCCCC1 [CHES, N-cyclohexyl-2-aminoethanesulfonic acid]",effect on OtsA activity,[6]; [17],no discernible impact on OtsA activity
